Measurements as given in doi:10.1101/2021.03.03.433707 (bioRxiv, 2021).
Values belong to the binder of their own block, whether it stands above or below them.

B2: MatPΔ18C (printed MatPA18C; 1-132) (domain or fragment, E. coli, UniProt P0A8N0 1-132, looked up)
chain: MKYQQLENLESGWKWKYLVKKHREGELITRYIEASAAQEAVDVLLSLENEPVLVNGWIDKHMNPELVNRMKQTIRARRKRHFNAEHQHTRKKSIDLEFIVWQRLAGLAQRRGKTLSETIVQLIEDAENKEKY

Key:
[1] = biological target: B2; assay: native MS
native MS = biological target: the molecule itself; assay: native MS
[2] = biological target: T1, MukB long hinge (LH, 568-863) (E. coli, UniProt P22523 568-863); assay: ITC
T1 sequence (looked up): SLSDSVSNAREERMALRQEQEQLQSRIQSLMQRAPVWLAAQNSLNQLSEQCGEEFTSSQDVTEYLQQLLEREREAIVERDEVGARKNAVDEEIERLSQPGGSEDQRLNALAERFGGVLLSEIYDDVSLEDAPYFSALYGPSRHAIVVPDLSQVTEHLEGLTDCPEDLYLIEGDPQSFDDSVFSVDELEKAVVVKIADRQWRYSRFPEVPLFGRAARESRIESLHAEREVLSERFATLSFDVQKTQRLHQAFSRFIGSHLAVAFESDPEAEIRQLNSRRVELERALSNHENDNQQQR

[3] = biological target: T1, MukB long hinge (LH, 568-863); assay: native MS
[4] = biological target: T2, MukB, full length, wild type (E. coli, UniProt P22523 1-1486); assay: fluorescence correlation spectroscopy
T2 sequence (looked up): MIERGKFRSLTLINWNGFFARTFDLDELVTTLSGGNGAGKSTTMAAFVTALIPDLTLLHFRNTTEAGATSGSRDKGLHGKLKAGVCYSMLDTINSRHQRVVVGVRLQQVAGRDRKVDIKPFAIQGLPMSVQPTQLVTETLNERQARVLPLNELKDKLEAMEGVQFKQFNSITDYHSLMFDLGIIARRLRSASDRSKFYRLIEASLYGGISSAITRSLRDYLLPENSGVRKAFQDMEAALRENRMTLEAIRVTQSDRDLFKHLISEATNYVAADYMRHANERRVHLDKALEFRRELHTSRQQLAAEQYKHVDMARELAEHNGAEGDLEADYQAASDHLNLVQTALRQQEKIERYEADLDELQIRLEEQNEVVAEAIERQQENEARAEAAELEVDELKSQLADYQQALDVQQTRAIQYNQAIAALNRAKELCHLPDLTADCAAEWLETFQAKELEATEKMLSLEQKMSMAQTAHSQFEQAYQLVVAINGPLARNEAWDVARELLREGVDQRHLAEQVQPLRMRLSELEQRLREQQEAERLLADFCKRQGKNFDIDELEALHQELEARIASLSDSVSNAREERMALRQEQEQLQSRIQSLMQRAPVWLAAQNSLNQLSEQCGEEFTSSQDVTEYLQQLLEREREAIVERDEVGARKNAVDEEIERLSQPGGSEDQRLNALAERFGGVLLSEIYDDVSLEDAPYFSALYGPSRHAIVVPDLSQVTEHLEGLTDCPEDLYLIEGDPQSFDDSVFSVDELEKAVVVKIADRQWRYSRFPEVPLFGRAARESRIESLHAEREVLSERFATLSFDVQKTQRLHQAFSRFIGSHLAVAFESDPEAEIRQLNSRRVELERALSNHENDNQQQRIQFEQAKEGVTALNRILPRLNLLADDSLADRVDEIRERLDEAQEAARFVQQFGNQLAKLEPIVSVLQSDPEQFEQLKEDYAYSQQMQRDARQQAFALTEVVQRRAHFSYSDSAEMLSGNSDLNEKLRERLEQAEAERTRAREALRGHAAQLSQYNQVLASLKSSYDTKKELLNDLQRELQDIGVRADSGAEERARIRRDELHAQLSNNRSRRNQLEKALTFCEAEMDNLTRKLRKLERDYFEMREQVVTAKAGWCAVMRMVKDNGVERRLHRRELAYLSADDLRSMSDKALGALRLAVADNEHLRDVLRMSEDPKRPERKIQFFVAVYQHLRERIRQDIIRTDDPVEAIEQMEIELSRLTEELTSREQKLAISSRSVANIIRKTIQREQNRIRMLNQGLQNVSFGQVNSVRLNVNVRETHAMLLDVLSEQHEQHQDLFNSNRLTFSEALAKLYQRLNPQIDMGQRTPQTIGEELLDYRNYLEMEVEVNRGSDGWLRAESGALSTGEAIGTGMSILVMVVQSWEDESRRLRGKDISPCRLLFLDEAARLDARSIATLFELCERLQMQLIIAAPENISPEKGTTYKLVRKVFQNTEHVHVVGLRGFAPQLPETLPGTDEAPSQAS

[5] = biological target: T3, MukB^KKK (full length MukB D697K D745K E753K) (E. coli, UniProt P22523 1-1486, D697K | D745K | E753K); assay: fluorescence correlation spectroscopy
T3 sequence (looked up): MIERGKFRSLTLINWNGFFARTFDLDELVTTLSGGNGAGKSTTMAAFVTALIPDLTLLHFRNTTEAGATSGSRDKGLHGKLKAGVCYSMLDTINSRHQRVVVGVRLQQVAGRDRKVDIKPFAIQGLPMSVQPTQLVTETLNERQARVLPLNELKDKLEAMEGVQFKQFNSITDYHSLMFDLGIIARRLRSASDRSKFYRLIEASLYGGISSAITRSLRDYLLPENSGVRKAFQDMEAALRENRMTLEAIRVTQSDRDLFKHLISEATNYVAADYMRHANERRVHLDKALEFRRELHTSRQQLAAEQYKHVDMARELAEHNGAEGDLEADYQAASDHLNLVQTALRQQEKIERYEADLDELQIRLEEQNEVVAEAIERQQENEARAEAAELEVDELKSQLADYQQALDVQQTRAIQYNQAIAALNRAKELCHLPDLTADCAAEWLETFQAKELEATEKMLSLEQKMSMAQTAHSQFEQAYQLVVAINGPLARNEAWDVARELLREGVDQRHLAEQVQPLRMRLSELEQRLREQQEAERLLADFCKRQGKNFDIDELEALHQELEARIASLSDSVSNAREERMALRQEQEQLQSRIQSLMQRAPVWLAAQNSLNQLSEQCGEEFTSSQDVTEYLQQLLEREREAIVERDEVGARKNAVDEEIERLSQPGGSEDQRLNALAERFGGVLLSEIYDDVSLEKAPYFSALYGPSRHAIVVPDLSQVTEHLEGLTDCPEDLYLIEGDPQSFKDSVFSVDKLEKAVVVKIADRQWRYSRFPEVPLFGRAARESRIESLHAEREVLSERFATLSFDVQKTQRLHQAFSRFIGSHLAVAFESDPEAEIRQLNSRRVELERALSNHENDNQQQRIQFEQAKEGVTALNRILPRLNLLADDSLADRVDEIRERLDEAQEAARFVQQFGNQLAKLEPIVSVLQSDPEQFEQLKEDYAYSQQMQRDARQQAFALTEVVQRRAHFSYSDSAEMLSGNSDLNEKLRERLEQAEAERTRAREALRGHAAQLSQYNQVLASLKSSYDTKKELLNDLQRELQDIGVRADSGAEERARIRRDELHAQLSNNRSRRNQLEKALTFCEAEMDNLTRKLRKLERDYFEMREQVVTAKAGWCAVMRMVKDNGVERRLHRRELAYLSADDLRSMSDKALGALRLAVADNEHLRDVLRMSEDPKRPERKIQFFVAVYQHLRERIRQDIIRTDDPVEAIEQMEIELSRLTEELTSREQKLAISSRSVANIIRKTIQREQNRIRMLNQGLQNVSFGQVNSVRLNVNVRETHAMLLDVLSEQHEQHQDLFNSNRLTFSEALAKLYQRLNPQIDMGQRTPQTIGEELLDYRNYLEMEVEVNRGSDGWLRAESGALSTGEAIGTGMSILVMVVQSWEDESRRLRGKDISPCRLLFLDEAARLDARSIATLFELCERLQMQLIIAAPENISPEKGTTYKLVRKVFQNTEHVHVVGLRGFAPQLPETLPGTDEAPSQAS

binding result [1]: binds
B1: MukB short hinge (SH, 667-779) (domain or fragment, E. coli, UniProt P22523 667-779, looked up)
chain: GGSEDQRLNALAERFGGVLLSEIYDDVSLEDAPYFSALYGPSRHAIVVPDLSQVTEHLEGLTDCPEDLYLIEGDPQSFDDSVFSVDELEKAVVVKIADRQWRYSRFPEVPLFG
stoichiometry N (native MS): 2

Binder: B2
Kd [2]: 590 nM
dH [2]: -16.8 kcal/mol
stoichiometry N [2]: 0.96
stoichiometry N [3]: 1 MatP dimer per LH dimer

Kd [4]: ~250 nM
Kd [5]: ~1600 nM
B3: MatP-Cys-His labelled with Cy3B (MatP-Cy3B) (domain or fragment, E. coli, UniProt P0A8N0 1-132, looked up)
chain: MKYQQLENLESGWKWKYLVKKHREGELITRYIEASAAQEAVDVLLSLENEPVLVNGWIDKHMNPELVNRMKQTIRARRKRHFNAEHQHTRKKSIDLEFIVWQRLAGLAQRRGKTLSETIVQLIEDAENKEKY
modifications: Cy3B maleimide on a single cysteine engineered into the linker between MatP and its 6xHis-tag
